Measured values taken from patent publication US20200223930A1.

Biological target: CD33 (UniProt P20138)
Assay: flow cytometry, hybridoma supernatant on EL4-CD33 cells, rat anti-mouse IgG APC

UniProt P20138, sequence (P20138 18-364 limits assumed): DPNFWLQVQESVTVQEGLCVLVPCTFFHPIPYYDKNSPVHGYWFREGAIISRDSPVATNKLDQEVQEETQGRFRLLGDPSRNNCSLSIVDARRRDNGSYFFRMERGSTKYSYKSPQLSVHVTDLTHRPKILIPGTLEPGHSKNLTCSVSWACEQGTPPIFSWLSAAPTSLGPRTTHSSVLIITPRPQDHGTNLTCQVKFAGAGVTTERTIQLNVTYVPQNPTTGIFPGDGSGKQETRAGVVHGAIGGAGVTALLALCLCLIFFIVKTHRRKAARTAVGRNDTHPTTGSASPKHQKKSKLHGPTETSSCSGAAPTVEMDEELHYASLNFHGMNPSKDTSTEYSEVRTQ

B1: 3F5 (antibody, V domains shown)
VH: EVQLQQSGPELVKPGSSVKISCKASGYTFTDYNMDWVKQSHGKSLEWIGTINPNNGGTSYNQKFKGKATLTVDKSSSTAYMELRSLTSEDSAVYYCARKGYGGNYDYFDYWGQGTTLTVSS
VL: DILLTQSPAILSVSPGERVSFSCRASQSIGTSIHWYQQRTNGSPRLLIKYASESISGIPSRFSGSGSGTDFTLSINSVESEDIADYYCQQSNSWPYTFGGGTKLEIK
- CD33/APC+: 52%
